Reference: US20230174651A1 (Janssen / Centocor, published 2023)
Where a chain is given by its changes, count along the chain named.

B1: CD8B575 (antibody, human IgG1, kappa, V domains shown)
VH: QVQLQQSGGGLVQPGGSLKLSCAASGFTFSNYYMSWARQTPEKRLEWVAYISNDGDATYYPDSVKGRFTISRDNAKNTLYLQMSSLKSEDTAMYYCTREDYYSDYWFASWGQGTTVTVSS
VL: DIVMTQSQKFMSTTIEDRVSITCKASQNVGTAVAWYQQKPGQSPKLLIYSTSNRYTGVPDRFTGSGSGTDFTLTISNIQSEDLADYFCQQYSSYPLTFGGGTKLEIKR
notes: Mouse variable regions on human IgG1 / human kappa constant regions, made in CHO cells; also called AF647-CD8B575
B2: CD8B612 (antibody, human IgG1, kappa)
heavy: not shown
light: DIVMTQTPLSLPVSLGDQASISCRSSQNIVHSNGNTYLEWYLQKPGQSPKLLIYRVSKRFSGVPDRFSGSGSGTDFTLKITRVEAEDLGVYYCFQGSHVPWTFGGGTKLEIKRTVAAPSVFIFPPSDEQLKSGTASVVCLLNNFYPREAKVQWKVDNALQSGNSQESVTEQDSKDSTYSLSSTLTLSKADYEKHKVYACEVTHQGLSSPVTKSFNRGEC
notes: Mouse variable regions on human IgG1 / human kappa constant regions
B3: CD8B613 (antibody, human IgG1, kappa)
heavy: not shown
light: B2 light with I2V, V3Q, T5I, T7S
notes: as for B2
B4: CD8B623 (antibody, human IgG1, kappa)
heavy: not shown
light: B2 light with I2V
notes: as for B2
B5: CD8B617 (antibody, human IgG1, kappa)
heavy: not shown
light: DIQMTQSPLTLSVTIGQPASISCKSSQSLLDSDGETYLNWLLQRPGQSPKRLIYLVSKLDSGVPDRFTGSGSGTDFTLKISRVEAEDLGVYYCWQGTHFPLTFGGGTKLEIKRTVAAPSVFIFPPSDEQLKSGTASVVCLLNNFYPREAKVQWKVDNALQSGNSQESVTEQDSKDSTYSLSSTLTLSKADYEKHKVYACEVTHQGLSSPVTKSFNRGEC
notes: as for B2
B6: CD8B607 (antibody, human IgG1, kappa)
heavy: not shown
light: B5 light with S7T
notes: as for B2
B7: CD8B611 (antibody, human IgG1, kappa, V domains shown)
VH: EVQLQQSGAELVRPGASVNLSCTASGFNFKDDYMHWVKQRPEQGLEWIGWIDPENGDAAYASKFQGKATITADTSSNTAYLQLSSLTSEDTAVYYCITIFRSYWGQGTTLTVSS
VL: not shown
notes: as for B2
B8: CD8B622 (antibody, human IgG1, kappa)
heavy: not shown
light: B2 light
notes: Mouse variable regions on human IgG1 / human kappa constant regions; also called CD8B622.001

Columns and labels:
[1] = target: T1, soluble CAR extracellular domain (ECD) containing scFv and CD8α hinge (UniProt P01732 138-182, biotinylated); assay: BLI (OctetRed384), biotinylated CAR ECD on streptavidin tips; the cell stands under the head 'KD (M)' (heads shifted)
T1 construct: domain: CD8α hinge; also called soluble CAR ECD; CAR ECD
Procedure: (§1) To determine the binding affinity and kinetics of mAbs to CD8α hinge, soluble CAR extracellular domains (ECD) containing scFv and CD8α hinge was generated for Bio-layer interferometry (BLI) analysis using OctetRed384 (Sartorius). The CAR ECD was biotinylated and loaded to streptavidin sensor tip. Then mAbs were associated to the sensor and followed by disassociation in the assay buffer. Data was analyzed by Octet software (Sartorius).

[2] = target: T2, human CD8α on primary CD8+ T cells (human, UniProt P01732 22-235); assay: flow cytometry on PBMC, 2 µg/mL mAb, positive cells among CD8+ T cells, Donor 2
T2 construct: Endogenous CD8 on T cells from PBMC; also called CD8+ primary T cells; human primary CD8+ cells
Procedure: (§2) Frozen PBMCs were thawed and resuspended in FACS buffer (PBS+2% FBS). Cells were then incubated with Fc block for 15 min at 4 C prior to incubation with 2 μg/mL of each CD8α hinge binders at room temperature for 45 min. […] After staining, cells were washed with FACS buffer twice and resuspended in 100 μl PBS containing DAPI for acquisition. Cells were first gated on FSC/SSC, followed by live cell gating (DAPI negative cells) followed by singlet gating. CD3 T cells were identified using FSC versus CD3 dot plot. Within the CD3 T cells, CD4 and CD8 T cells were gated. Naïve, Effector, EM and CM cells were identified within the CD8 T cells using CD45RA and CD27 dot plot. Within each of the cell types, the secondary only control was used to set the gates to identify the positive stained population. The percentage of positive cells in CD8+ T cell population with binding to CD8α hinge binders were quantified and summarized in Table 13.

[3] = target: T1, soluble CAR extracellular domain (ECD) …; assay: BLI (OctetRed384), GC5W48-Btn (biotinylated CAR ECD) loaded on streptavidin tip, mAb in solution; second of two table rows; column head 'kdis (1/s)'
Procedure: as §1

[4] = target: T1, soluble CAR extracellular domain (ECD) …; assay: BLI (OctetRed384), GC5W48-Btn (biotinylated CAR ECD) loaded on streptavidin tip, mAb in solution; first of two table rows; column head 'kdis (1/s)'
Procedure: as §1

[5] = target: T2, human CD8α on primary CD8+ T cells; assay: flow cytometry on PBMC, 2 µg/mL mAb, positive cells among EM CD8 T cells, Donor 1
Procedure: as §2

[6] = target: T2, human CD8α on primary CD8+ T cells; assay: flow cytometry on PBMC, 2 µg/mL mAb, positive cells among EM CD8 T cells, Donor 2
Procedure: as §2

[7] = target: T1, soluble CAR extracellular domain (ECD) …; assay: BLI (OctetRed384), GC5W48-Btn loaded on streptavidin tip; row 'average'; the sheet puts this number under 'kon (1/Ms)', Table 14 of the text under 'kd (1/s)'
Procedure: as §1

[8] = target: T1, soluble CAR extracellular domain (ECD) …; assay: BLI (OctetRed384), GC5W48-Btn loaded on streptavidin tip; row 'average'; the sheet puts this number under 'kdis (1/s)', Table 14 of the text under 'KD (M)'
Procedure: as §1

[9] = target: T1, soluble CAR extracellular domain (ECD) …; assay: BLI (OctetRed384), biotinylated CAR ECD on streptavidin tips; the cell stands under the head 'ka (1/Ms)' but the text gives 1.83 nM as the affinity (heads shifted)
Procedure: as §1

[10] = target: T1, soluble CAR extracellular domain (ECD) …; assay: BLI (OctetRed384), GC5W48-Btn (biotinylated CAR ECD) loaded on streptavidin tip, mAb in solution; first of two table rows
Procedure: as §1

[11] = target: T1, soluble CAR extracellular domain (ECD) …; assay: BLI (OctetRed384), GC5W48-Btn (biotinylated CAR ECD) loaded on streptavidin tip, mAb in solution; second of two table rows
Procedure: as §1

[12] = target: T1, soluble CAR extracellular domain (ECD) …; assay: BLI (OctetRed384), biotinylated CAR ECD on streptavidin tips; the cell stands under the head 'kd (1/s)' (heads shifted)
Procedure: as §1

[13] = target: T2, human CD8α on primary CD8+ T cells; assay: flow cytometry on PBMC, 2 µg/mL mAb, positive cells among EMRA CD8 T cells, Donor 2
Procedure: as §2

[14] = target: T2, human CD8α on primary CD8+ T cells; assay: flow cytometry on PBMC, 2 µg/mL mAb, positive cells among EMRA CD8 T cells, Donor 1
Procedure: as §2

[15] = target: T2, human CD8α on primary CD8+ T cells; assay: flow cytometry on PBMC, 2 µg/mL mAb, positive cells among CD8+ T cells, Donor 1
Procedure: as §2

[16] = target: T3, CAR with CD8α hinge as the spacer, expressed on Jurkat CAR-T cells; assay: flow cytometry (iQue) on Jurkat CAR-T cells, A647 anti-human IgG Fc detection
T3 construct: domain: CD8α hinge; also called CD8α hinge expressed on the Jurkat CAR-T cells
Procedure: mAbs were 1:3 serially diluted ranging from 100 nM to 1.7 pM and were incubated with cell mixture containing Jurkat CAR-T cells (unstained), Jurkat cells (CTV dye stained) and Sup-T1 cells (CSFE dye stained) in assay media (RPMI 1640+10% HI FBS+Pen/strep) for 1 hr at 37° C. […] Cells were then washed and analyzed by iQue screener (Intellicyt®). ForeCyt software was used for data analysis. The ratio of geomean of AF647 fluorescent signal from sample over the isotype control antibody (Signal) was used for the dose-dependent plot (FIGS. 2A-2F).

[17] = target: T1, soluble CAR extracellular domain (ECD) …; assay: BLI (OctetRed384), biotinylated CAR ECD on streptavidin tips; the cell stands under the head 'ka (1/Ms)' but the text gives 5.58 nM as the affinity (heads shifted)
Procedure: as §1

T2 sequence (P01732 22-235): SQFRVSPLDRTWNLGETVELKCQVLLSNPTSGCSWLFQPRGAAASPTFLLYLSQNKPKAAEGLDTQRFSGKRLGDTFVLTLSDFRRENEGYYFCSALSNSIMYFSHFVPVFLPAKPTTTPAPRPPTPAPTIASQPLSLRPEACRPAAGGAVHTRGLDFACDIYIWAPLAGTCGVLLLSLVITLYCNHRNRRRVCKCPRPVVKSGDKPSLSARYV
T3 sequence (P01732 138-182): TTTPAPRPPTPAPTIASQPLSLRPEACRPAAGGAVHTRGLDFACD
T1 sequence (P01732 138-182): as above

Binder | koff [1] [s⁻¹] | Binding in CD8+ cells (%) [2] [%] | koff [3] [s⁻¹] | koff [4] [s⁻¹] | Binding+ in EM (%) [5] [%] | Binding+ in EM (%) [6] [%] | kon [7] [M⁻¹ s⁻¹] | koff [8] [s⁻¹] | Kd [9] [nM] | Kd [10] [nM] | kon [10] [M⁻¹ s⁻¹] | Kd [11] [nM] | kon [11] [M⁻¹ s⁻¹] | kon [12] [M⁻¹ s⁻¹] | Binding+ in EMRA (%) [13] [%] | Binding+ in EMRA (%) [14] [%] | Binding in CD8+ cells (%) [15] [%] | EC50 [16] [nM] | Kd [17] [nM]
B1 | 0.000128 | 96.4 | 7.72e-05 | 0.000179 | 69.5 | 77.9 | 68000 | 0.000128 | 1.83 | 2.01 | 89100 | 1.65 | 46800 | 68000 | 92.8 | 81.3 | 84.4 | 32.6 | 
B2 | 0.00135 | 32.9 | 0.00156 | 0.00114 | 65.1 | 72.8 | 241000 | 0.00135 |  | 4.81 | 237000 | 6.35 | 245000 | 241000 | 7.67 | 67.6 | 71.6 | 2.9 | 5.58
B3 |  | 28.1 |  |  | 70.5 | 75.9 |  |  |  |  |  |  |  |  | 8.76 | 72 | 73.8 | 1.9 | 
B4 |  | 19.5 |  |  | 56.5 | 60.6 |  |  |  |  |  |  |  |  | 5.38 | 63.3 | 65.3 | 7.8 | 
B5 |  | 97.8 |  |  | 86.2 | 89.1 |  |  |  |  |  |  |  |  | 97.3 | 90.3 | 88.5 | 23.7 | 
B6 |  | 97.7 |  |  | 82.8 | 87.4 |  |  |  |  |  |  |  |  | 97.1 | 87.9 | 87.5 | 24.7 | 
B7 |  | 98.2 |  |  | 88.5 | 91.5 |  |  |  |  |  |  |  |  | 97.8 | 91 | 88.8 | 21.6 | 
B8 |  | 16.7 |  |  | 50.4 | 50.3 |  |  |  |  |  |  |  |  | 4.25 | 60.6 | 63.1 | 37 | 
